# System: MS2 coat protein
# Experiment: apparent KD of MS2 coat protein; higher = weaker reporter binding
# Settings: Eterna round: R107; input ligand: arginine 13.2 mM
# In short: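 The buffer was 100 mM Tris-HCl pH 7.5 with 80 mM KCl and 4 mM MgCl2, used without or with constant ligand. In it, RNA switches transcribed on-chip from Illumina sequencing clusters were titrated with SNAP-549-labelled MS2 coat protein in twofold steps from 0.7 or 1.5 nM to 3 µM. Apparent KD for each design is the median of its normalised cluster binding-curve fits.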
row,Sequence,apparent KD of MS2 coat protein [nM]
1,CGAAUACGAAUUGAUACCAGCAUGUUAACAUGAGGAUCACCCAUGUUAAGGAUAACAUAAUGCCCUUGGCAGCAACGUAAAUUCG [Ab],16.7
2,UCUUGAGUUUCGGAUACCAGUGUUGUCGAUACAUGAGGAUCACCCAUGUUAGAGGAUGUACACCCUUGGCAGCCGGCUGUGGCGG [zszmullin],13.7
3,AUAACAUGAGGAUCACCCAUGUAAGGUGAUACCAGACGAAGUAAAGUCCCUUGGCAGCACAAGCAUAGUUGCGAAUAUUGAUAGA [JR_SSTheophyA_Sub005],264
4,GCCAUCGGCGAAAGCCGAUGGUAUACAGAAGGAGCGCACGAAAGUGCAGGUAGGUCGCUGAACAUGAGGAUCACCCAUGUAAUAA [#29 Same State - Arginine A],19.6
5,AGCAAGUUCGGAAGGAGCGGUACAUGAGGAUCACCCAUGUAUUCAAUCGUGAUCGGAACGUGCCAGGUAGGUCGCCGAAUGCGUC [XArg-B1],13.3
6,GGGUACAUCGCGGCCGCCACUCAUGUAAAUGCAUGAGGAACACCCAUGCCGAUGGAGACAUCGGAGAGGACCGGGUGAUGUACCG,66
7,GCUUGGGUCGCACGGCCCUGGCGGUGCGAUACCAGCACGGUAACGUGCCCUUGGCAGCGCACAUGAGGAUCACCCAUGUGGUGCG [#1 Exclusion - Theophylline A Attempt #23 (HarryS)],9.42
8,GGGCAAGAGGGAAGGAGCGUCAGCUGAGUCACAUGAGGAUCACCCAUGUCGCACAUAGUGUGACAGGUAGGUCGCCCUCUGCCCU [Zaistiqu],74.3
9,CCUAUAUAGUCGGCCGCCACUGACUACAUGAGGAUCACCCAUGUAACACGAACAUGGUCCUGGAUCAGGACCGGGACUAUAUAGG [Tryp B Ex t5],16.5
10,GAUAGUUGAUGGGAUACCAGCCUACACAUGAGGAUCACCCAUGUGAUUCGUGUACGACUGGGCCCUUGGCAGCCCAUAUUGUGUA [#12 Same State - Theophylline B],46.1
11,AUACAUGAGGAUCACCCAUGUAUAGAUGAAGGAGCGACCAGAGGGUCAGGUAGGUCGCAUCACAUGAGGAUCACCCAUGUAUUUU [DOUBLE!!! :-D #10],41.9
12,UGUAUGGACUGAAGGAGCGGGUUGAUAACUUGAGGAUCACCCAGGUAAAAGGCGAAAGCCACCCAGGUAGGUCGCAGUCCAUACU,52.6
13,AUGGUCGACGAUCUGCGAAAAGCAGAUCGACGAGGACCGGUACGGCCGCCACUCGUGUUCAUUAAACAUGAGGAUCACCCAUGUA [#15Tryptophan A Same State],41
14,ACACAUGACGCGGCCGCCACUGCAACAUGAGGAUCACCCAUGUCACCCAUGUAUGACAUGAGGAUCAGGACCGGGCGUGUGUGGA [Same State Tryptophan B 3],615
15,GAUGAACUAUAUGAUACCAGACAACAUGAGGAUCACCCAUGUGAUAGUCGUCCUCUGCCUGUCCCUUGGCAGCGUAUAGUUUAUC [XTheo B #19],30.7
16,AGUAUUGGAAACAGUACUAGUGAUCCGGUCCGAGGACCGGUACGGCCGCCACUCGAAUUAAAUAAACAUGAGGAUCACCCAUGUA [Ex Tryptophan A 15],18.1
17,CACAUGAGGAUCACCCAUGUCUGAACUGAAGGAGCGCUAAAUAAGGCAGGUAGGUCGCGGAAUUUUGUGUGCAUAUGCAUAUGGG [9.M],23.8
18,AUUCAUGGAAACAUGACAUAGGGAUCCGGUCGAGGACCGGUACGGCCGCCACUCGUUUGGAGGCACAUGAGGAUCACCCAUGUUA [SS Tryp A #7],40.7
19,GACGCAUGAGUUGGAACAGCUCAUGGGUCGCGAGGACCGGUACGGCCGCCACUCGGCUGUACAUGAGGAUCACCCAUGUCAGGGU [#1 Same State - Tryptophan A Attempt #30 (HarryS)],72.7

row,Sequence,apparent KD of MS2 coat protein [nM]
1,AUCGUACCUGAUGAUACCAGCAUGUGCUCGUAACAUGAGGAUCACCCAUGUGAUCAGUGAUGCCCUUGGCAGCAUGAUCGGUACA [Same State - Theophylline B (Freestyle 16)],67
2,AGACAUGAGGAUCACCCAUGUAGUAUGGAUACCAGAUCCAGAUUUAUCCCUUGGCAGCUGUGGUACAGCGUUGGAUCGCUCCUAG [Exclusion - Theophylline A (Freestyle 12)],22.3
3,AACAUGAGGAUCACCCAUGUGUCCUCGAAACGAGGACCGGUACGGCCGCCACUCGAAAUAAGCUGUUGACGAAAAGUCAGCAGCA [Mat - Exclusion - Trytophan A - D20],128
4,CGAGUCCGCUGAUGGGCUAAGUCAGGUGAUACCAGCCACUCCCGCGGCCCUUGGCAGCACAUGAGGAUCACCCAUGUAGGGCUUG [Iserbele],19.2
5,AAUAUAAAAUAAAGAAAAUUUAUAUCUGAUACCAGACUCUCAUGGGUCCCUUGGCAGCAGUAACAUGAGGAUCACCCAUGUAUUA [JR_Nu_SSTheophyA_Sub026],67.7
6,UAAAACAUGAGGAUCACCCAUGUAAUUGAUACCAGAGUGAUGAUCCUCCCUUGGCAGCAAAACGCUGAUUGGAAACAAUCAGCGA [Mat - Same State Theophlline A - Mod of Eli - D25],50.1
7,AUAACUGUCAAGGAAGGUGAUCCAGCAGAUACCAGCUAGGAAACUAGCCCUUGGCAGCUGCAACAUGAGGAUCACCCAUGUAAUA [(T)'-(M)'-(T1)-(T2)-(M1)-(M2)_Design9],61
8,ACAUGAGGAUCACCCAUGUAAUAAUCAGAAGGAGCGUGGAAUAACACAGGUAGGUCGCUGAUGUUUUGUUAAAAUUAUUCGUGAA [JR_SSArginiA_Sub002],11.7
9,UGUUUUGUGGGAAGGAGCGCAUACUUCACAUGAGGAUCACCCAUGUCAAGACGUGAGUCAGUGCAGGUAGGUCGCCUAGUUAAGA [Same State - Arginine B (Freestyle 16)],52.8
10,UAAUAAGUACCGGUCCUCAGAUCCUCAUGUCGAGGACCGGUACGGCCGCCACUCGAAACAUGAGGAUCACCCAUGUAAUAAUAAU [#06 Exclusion Tryptophan A],24.5
11,AUUGACAUGAGGAUCACCCAUGUAUCCGAAGGAGCGGCAGAUGUGCCAGGUAGGUCGCGGGUGAAAGAGACAUCGUAGGGUGUCG [Same State - Arginine A / B [only NuPack]],73.9
12,AAUUAUUUCUCAAUUAUUUAAUCUUCAGAAGGAGCGUGAUGAUUCACAGGUAGGUCGCUGAUGACAUGAGGAUCACCCAUGUAUU [JR_SSArginiA_Sub003],30.6
13,GCUACAUGAGGAUCACCCAUGUAUGCGAGUCGAGGACCGGUACGGCCGCCACUCGCUUAACAUGAGGAUCACCCAUGUUACUCGC [SSTA DOUBLE!!! :-D #19],56
14,UUUACCGACACAGAUCACUAAAACCUUGAUACCAGUCCCAGUGGCGACCCUUGGCAGCAAUAUACAUGAGGAUCACCCAUGUGCA [theeternabot_exclusion_MS2_Theo_A_1],13.7
15,GGGCAAGAGGGAAGGAGCGUCAGCUGAGUAACAUGAGGAUCACCCAUGUAGCACAUAGUGUGACAGGUAGGUCGCCCUCUGCCCU [SS-ArgB6],12.6
16,UGUAUGUGAUCUGAUACCAGAGUGACGCGAAAGCGACCUGAGGAUCACCCUGGUAAAUAACUCCCUUGGCAGCAGAUCGCAUACU,43.8
17,ACAUGAGGAUCACCCAUGUGUGUAAGUCCUCGAGGACCGGUACGGCCGCCACUCGAACGAGUGAAGCCUGAUACUAAGUAUCAGG [SS Trp A s5],99.6
18,GUAUGAGUUGACUGUGAGACUGGCGUGGAAGGAGCGCACGGAGGUGCAGGUAGGUCGCCACAUGAGGAUCACCCAUGUCAGGCCG [Ceedtila],32.4
19,UAUCGUCAGACGGCCGCCACUAGAACAUGAGGAUCACCCAUGUACGGCCGCCCGGUGUGAUCCACUAGGACCGGGUCUGACGAAU [(Trp1)-(Ms2)-(T)'-(M)'-(Trp2)_Design23],39.3

# From the supplement of paper PMC9170038
